The source of these data is patent publication US20260102485A1 (CEDARS SINAI MEDICAL CENTER, published 2026).

Numbering of substitutions follows the chain as printed.

To fix the notation:
B1: 9E12E5 (antibody, V domains shown)
VH: QVHLQQSGPELVKPGASVKLSCKASGYTFTKYDINWVRQRPEQGLEWIGWIFPGDGRTDYNEKFKGKATLTTDKSSSTAYMEVSRLTSEDSAVYFCARYGPAMDYWGQGTSVTVAS
VL: DVLMTQTPLSLPVSLGDQASISCRSSQTIVHSNGDTYLDWFLQKPGQSPKLLIYKVSNRFSGVPDRFSGSGSGTDFTLKISRVEAEDLGVYYCFQGSHVPYTFGGGTKLEIK
notes: Mouse hybridoma monoclonal antibody; also called 684842-6; anti-TL1A antibody 9E12E5
B2: 5C3D11 (antibody, V domains shown)
VH: EVQLQQSGAELVKPGASVKLSCTASGFDIQDTYMHWVKQRPEQGLEWIGRIDPASGHTKYDPKFQVKATITTDTSSNTAYLQLSSLTSEDTAVYYCSRSGGLPDVWGAGTTVTVSS
VL: QIVLSQSPAILSASPGEKVTMTCRASSSVSYMYWYQQKPGSSPKPWIYATSNLASGVPDRFSGSGSGTSYSLTISRVEAEDAATYYCQQWSGNPRTFGGGTKLEIK
notes: Mouse hybridoma monoclonal antibody; also called 684842-3; anti-TL1A antibody 5C3D11
B3: AS12824 (antibody, V domains shown)
VH: QVQLVQSGAEVKKPGASVKVSCKASGFDICDTYMHWVKQRPGQGLEWIGRIDPASGHTKYDPKFQVRATITTDTSTSTAYLELSSLRSEDTAVYYCARSGGLPDVWGQGTTVTVSS
VL: EIVLTQSPGTLSASPGERATMSCRASSSVSYMYWYQQKPGQAPRPWIYATSNLASGVPDRFSGSGSGTDYTLTISRVEPEDFAVYYCQQWSGNPRTFGGGTKLEIK
notes: Humanized 5C3D11 clone from a phage display library; also called 15
B4: AS12823 (antibody, V domains shown)
VH: B3 VH with V20L, K38R, I70M, A79V
VL: B3 VL with A13L, V57I, Y70F
notes: Humanized 5C3D11 clone from a phage display library; also called 14
B5: AS12825 (antibody, V domains shown)
VH: B3 VH with R40A, I48M, I70M, A97S
VL: B3 VL with A19V, P45L, W46L, Y70F
notes: Humanized 5C3D11 clone from a phage display library; also called 16
B6: AS12819 (antibody, V domains shown)
VH: B3 VH with K12V, V20L, K38R, I48M, A68V, I70M, A79V
VL: B3 VL with A13L, A19V, Y70F, L103V
notes: Humanized 5C3D11 clone from a phage display library; also called 10
B7: AS12816 (antibody, V domains shown)
VH: B3 VH with T72R, A97S
VL: B3 VL with A19V, M21L, Y70F, V77L
notes: Humanized 5C3D11 clone from a phage display library

The first experiment deals with T1, human TL1A (hTL1A) antigen (human, UniProt O95150 58-251, limits assumed).
T1 sequence (looked up): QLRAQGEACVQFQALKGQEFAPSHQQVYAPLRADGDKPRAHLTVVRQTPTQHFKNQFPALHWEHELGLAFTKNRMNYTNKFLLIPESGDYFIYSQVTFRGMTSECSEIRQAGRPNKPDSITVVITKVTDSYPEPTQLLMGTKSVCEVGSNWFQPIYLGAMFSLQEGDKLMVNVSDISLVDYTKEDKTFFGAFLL
Nature of the experiment: cell-based or functional assay.
In the case of B1, the “EC50, inhibition of human TL1A induced IFN-γ production (percent of IFN-γ production without inhibitor)” value turned out to be 2.4 nM.

A further experiment concerns the target T1, human TL1A (hTL1A) antigen. Nature of the experiment: cell-based or functional assay. The source holds these as a separate data set.
B2: the “EC50, inhibition of human TL1A induced IFN-γ production (percent of IFN-γ production without inhibitor)” value came out at 1 nM.

The target of another experiment is T1, human TL1A (hTL1A) antigen. Nature of the experiment: Biacore (SPR), TL1A as analyte. Background: Surface plasmon resonance follows binding to a sensor surface in real time, without labels.
As a reminder, the Kd is the equilibrium constant for the complex coming apart. Higher therefore signals lower affinity. For the molecule B1, the Kd was found to be 0.52 nM.
As to B2, binding was put at a Kd of 0.079 nM.

The target in the next experiment is T1, human TL1A (hTL1A) antigen. Nature of the experiment: SPR, affinity ranking, clone as ligand.
The koff is the first-order rate constant of dissociation. The low end stands for slow dissociation, the high end for fast dissociation. A word on the kon: it is the rate constant with which the complex forms. For B3, the Kd stood at 0.0163 nM, the koff was 1.69e-05 s⁻¹ and the on-rate constant (kon) came out at 1.03e+06 M⁻¹ s⁻¹.
In turn, B4 returned an equilibrium dissociation constant (Kd) of 0.0424 nM, a koff of 3.66e-05 s⁻¹ and a kon of 864000 M⁻¹ s⁻¹.
B5 showed a Kd of 0.105 nM, a koff of 5.45e-05 s⁻¹ and a kon of 518000 M⁻¹ s⁻¹.
The matching figures for B6: 0.0462 nM, 3.81e-05 s⁻¹ and 825000 M⁻¹ s⁻¹.
B7 returned a Kd of 0.062 nM, a koff of 4.73e-05 s⁻¹ and a kon of 763000 M⁻¹ s⁻¹.

The target of a further experiment is T2, murine TL1A (murine, UniProt Q5UBV8 94-252, limits assumed).
T2 sequence (looked up): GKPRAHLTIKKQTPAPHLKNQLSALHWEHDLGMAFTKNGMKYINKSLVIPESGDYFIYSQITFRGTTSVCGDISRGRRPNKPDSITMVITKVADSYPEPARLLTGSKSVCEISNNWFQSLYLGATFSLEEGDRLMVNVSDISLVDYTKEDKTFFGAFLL
Nature of the experiment: MSD electrochemiluminescence plate assay, antibody titrated on plates coated with murine TL1A. On the procedure:
Anti-human TL1A monoclonal antibodies 9E12E5 and 5C3D11 neutralize the activity of human TL1A in vitro. […] MSD plates were coated with murine TL1A and incubated with various concentrations of 5C3D11 or 9E12E5 to evaluate the ability of the antibody to recognize murine TL1A, as shown in FIG. 6. Human TL1A was included as a positive control. 5C3D11 recognizes murine TL1A in a concentration dependent manner. The binding profile of both the 5C3D11 and 9E12E5 antibodies were assessed using a TL1A transfected HEK293 cell line and compared to the untransfected parental HEK293 cell line. Fluorescent staining of the anti-TL1A antibodies in TL1A expressing HEK293 cells is compared to the untransfected parental HEK293 cells, as shown in FIG. 7.
With B1, the binding result is recorded as “no binding (tested: 100 ng/ml)”.

For the next experiment, the target named is T1, human TL1A (hTL1A) antigen. Nature of the experiment: SPR, multi-cycle, antibody as ligand, TL1A analyte.
B3: the kon came out at 1.07e+06 M⁻¹ s⁻¹.
B4: the kon came out at 1.11e+06 M⁻¹ s⁻¹.
In turn, B6 showed a kon of 946000 M⁻¹ s⁻¹.
As for B7, the association rate constant (kon) was 819000 M⁻¹ s⁻¹.
